Target: des(methyl) spinach Rubisco (ribulose-1,5-bisphosphate carboxylase-oxygenase holoenzyme) (UniProt P00875)

wild-type pea Rubisco large subunit epsilon-N-methyltransferase (pea Rubisco LSMT)
carboxylase activity at saturating and low CO2: showed no difference in activity between native Rubisco and Rubisco with bound pea Rubisco LSMT alone

Reference: patent US20090070901
